According to US20240182592A1 (CHIA TAI TIANQING PHARMACEUTICAL GROUP, published 2024):

How the values were obtained:
[1] = molecular target: T1, human BCMA protein (human, UniProt Q02223 1-54, limits assumed); test: SPR (Biacore T200), antibody captured by anti-hIgG, human BCMA as analyte, 1:1 model
T1 construct: also called hBCMA; Antigen BCMA
T1 sequence (looked up): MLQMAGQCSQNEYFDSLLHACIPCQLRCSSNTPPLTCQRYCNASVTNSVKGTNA
Procedure: The affinity of the test antibody for human BCMA protein was determined by Biacore T200 (GE) as follows:
The response signals were detected in real time using Biacore software, and association and dissociation curves were obtained. The buffer used in the experiment was Biacore universal buffer (137 mM NaCl, 2.7 mM KCl, 10 mM Na₂HPO₄.12H₂O, 1.8 mM KH₂PO₄, 0.05% surfactant P-20 (w/v), pH 7.4). […] The flow rate in the flow cell was at 50 μL/min, the association was performed for 240 s, the dissociation was performed for 1400 s, the regeneration was performed using 3 M MgCl₂ (GE) for 60 s, and the baseline was stable. Results were obtained by calculation according to the affinity and kinetics 1:1 binding mode in biacore evaluation software.

[2] = molecular target: T2, cynomolgus monkey BCMA on transiently transfected HEK293T cells (cynomolgus monkey, UniProt Q02223 1-184 (human entry)); test: flow cytometry, HEK293T cells transiently transfected with cynomolgus monkey BCMA
T2 construct: it may be a nucleotide entry; also called HEK293T-CynoBCMA
T2 sequence (Q02223 other isoform, or with tags, fused parts or gaps): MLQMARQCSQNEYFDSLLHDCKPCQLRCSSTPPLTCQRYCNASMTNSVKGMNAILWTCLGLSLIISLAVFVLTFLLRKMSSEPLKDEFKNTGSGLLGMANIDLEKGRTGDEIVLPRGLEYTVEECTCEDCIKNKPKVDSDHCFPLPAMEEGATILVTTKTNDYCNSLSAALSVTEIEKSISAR
From the text: The cells were washed and then tested using a flow cytometer (Thermo Fisher Scientific Inc., Attune NXT).

[3] = molecular target: T3, human BCMA on cells (human, UniProt Q02223 1-184); test: flow cytometry, CHO-hBCMA cells
T3 construct: whole, on cells; also called CHO-hBCMA cells; U266 cells
T3 sequence (looked up): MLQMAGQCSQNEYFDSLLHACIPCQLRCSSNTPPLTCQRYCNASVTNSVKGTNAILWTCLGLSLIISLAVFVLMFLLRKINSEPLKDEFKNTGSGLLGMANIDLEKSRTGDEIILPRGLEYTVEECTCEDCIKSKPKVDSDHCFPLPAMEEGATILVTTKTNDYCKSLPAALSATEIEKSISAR
From the text: (§1) The binding of the anti-human BCMA VHH-Fc chimeric antibodies to target cells with different BCMA expression levels was detected by flow cytometry. The CHO-hBCMA cells (iCarTab Biotechnology (Suzhou) Co. Ltd., product catalog No. AKD001A) were a stably transfected cell line highly expressing BCMA. The U266 cells (Cell Culture Center, Institute of Basic Medical Sciences, Chinese Academy of Medical Sciences, product catalog No. 3111C0001CCC000684) were a natural human myeloma cell line expressing BCMA at medium levels. The PRMI8226 cells (Cell Culture Center, Institute of Basic Medical Sciences, Chinese Academy of Medical Sciences, product catalog No. 3111C0001CCC000083) were a natural human myeloma cell line expressing BCMA at low levels. The HUVEC cells (ScienCell Research Laboratories, product catalog No. […] 8000) were a human umbilical vein endothelial cell line not expressing BCMA. […] A PE-labeled anti-human IgG Fc antibody (Jackson Immuno Rescarch, product catalog No. 109-116-170) was added, and the mixture was incubated on ice for 0.5 h. The cells were washed and then tested using a flow cytometer (Thermo Fisher Scientific Inc., Attune NXT).

[4] = molecular target: T3, human BCMA on cells; test: flow cytometry, U266 cells
From the text: as §1

[5] = molecular target: T4, human BCMA-His (ACRO, product catalog No. BCA-H522y) (human, UniProt Q02223 1-54, biotin-conjugated in the ELISAs of Examples 5 and 6.1 (site not stated)); test: competition ELISA (chessboard), biotin-BCMA-His; competitor: 1A10-Fc
T4 construct: Bought protein; also called BCMA-His protein; biotin-conjugated recombinant BCMA-His protein; not shown: His tag
T4 sequence (looked up): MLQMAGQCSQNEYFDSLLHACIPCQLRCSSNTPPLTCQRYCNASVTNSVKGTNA
Procedure: (§2) The anti-human BCMA VHH-Fc chimeric antibodies were diluted to 2 μg/mL and allowed to coat a high-adsorption microplate. The plate was washed and then blocked. […] According to a chessboard arrangement, the incubated mixtures of antigen and antibody or the biotin-conjugated BCMA-His protein alone (control group) were added in sequence to the well plate at 100 μL/well. The plate was incubated at 37° C. for 1 h. The plate was washed to remove unbound biotin-conjugated recombinant BCMA-His protein. HRP-conjugated streptavidin (eBioscience, product catalog No. 18-4100-51) was added, and the plate was washed 5 times and then subjected to color development. The light absorption signal values at the wavelength of 450 nm and the reference wavelength of 650 nm were measured. The blocking rate of one antibody for the binding signal of another antibody to BCMA-Bio was calculated according to the formula blocking rate=(signal value of control group−signal value of sample group)/signal value of control group×100%. Positive control groups in which antibodies competed with themselves are shown on the diagonal line “\” of the chessboard (indicated in gray).

[6] = molecular target: T5, human TACI protein (human, UniProt O14836 2-166, limits assumed); test: SPR (Biacore T200), antibody captured by anti-hIgG (Fc)
T5 sequence (looked up): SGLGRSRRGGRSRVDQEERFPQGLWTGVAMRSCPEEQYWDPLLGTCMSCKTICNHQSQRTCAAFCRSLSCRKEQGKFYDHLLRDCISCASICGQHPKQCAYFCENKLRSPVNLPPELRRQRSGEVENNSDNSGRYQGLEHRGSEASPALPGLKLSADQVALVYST
Procedure: (§3) The anti-human BCMA VHH-Fc chimeric antibodies were tested for specificity using a biomolecular interaction analysis system (GE, Biacore T200). An anti-hIgG (Fc) antibody (GE, product catalog No. BR-1008-39) was amino-coupled to a CM5 sensor chip. The anti-human BCMA VHH-Fc chimeric antibodies were diluted to 2 μg/mL with a running buffer (137 mM NaCl, 2.7 mM KCl, 10 mM Na₂HPO₄.12H₂O, 1.8 mM KH₂PO₄, 0.05% surfactant P-20 (w/v), pH 7.4), and capture was allowed for 90 s by passing the dilutions through experimental channels at a flow rate of 30 μL/min. Human TACI or BAFF-R protein was diluted to 100 nM with the running buffer, and binding was allowed by passing the dilution at a flow rate of 50 μL/min. The binding signal curve was observed.

[7] = molecular target: human BAFF-R protein (human, UniProt Q96RJ3 7-71, limits assumed); test: as above
Chain of human BAFF-R protein (Q96RJ3 7-71 limits assumed): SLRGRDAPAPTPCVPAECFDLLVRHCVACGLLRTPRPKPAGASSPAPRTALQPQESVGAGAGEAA
Procedure: as §3

[8] = molecular target: T4, human BCMA-His (ACRO, product catalog …); test: competition ELISA (chessboard), biotin-BCMA-His; competitor: 1B10-Fc
Procedure: as §2

[9] = molecular target: T4, human BCMA-His (ACRO, product catalog …); test: competitive ELISA: antibody blocks binding of biotin-BCMA-His to coated APRIL
Procedure: The plate was incubated at 37° C. for 1 h and then washed to remove unbound biotin-conjugated recombinant BCMA-His protein. HRP-conjugated streptavidin (eBioscience, product catalog No. 18-4100-51) was added, and the plate was washed 5 times and then subjected to color development. The light absorption signal values at the wavelength of 450 nm and the reference wavelength of 650 nm were measured.

[10] = molecular target: T4, human BCMA-His (ACRO, product catalog …); test: competition ELISA (chessboard), biotin-BCMA-His; competitor: 1A1-Fc
Procedure: as §2

[11] = molecular target: cynomolgus monkey BCMA protein (cynomolgus monkey, UniProt A0A2K5UD97 1-53); test: SPR (Biacore T200)
Chain of cynomolgus monkey BCMA protein (A0A2K5UD97 entry or part of it limits assumed): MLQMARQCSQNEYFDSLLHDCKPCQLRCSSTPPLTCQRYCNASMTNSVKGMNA

[12] = molecular target: T4, human BCMA-His (ACRO, product catalog …); test: competition ELISA (chessboard), biotin-BCMA-His; competitor: 1A11-Fc
Procedure: as §2

B1: 1A11-Fc (antibody, human IgG1, V domains shown)
VH: QVQLVESGGGSVQAGGSLRLSCAASGVTFNSACMGWFRQAPGKEREGVARIETGYGGTVYADSVKGRFTISRDNAKNTVYLQMNSLKPEDTAMYYCAAKRSWCTPTWWHELDYNYWGQGTQVTVSS
notes: also called anti-human BCMA VHH-Fc chimeric antibody 1A11-Fc
[1]
  Kd: 3.96 nM
[2]
  EC50: 10.4 nM
[3]
  EC50: 2.08 nM
[4]
  EC50: 1.26 nM
[5]
  blocking rate: 21.6%
[6]
  binding result: no binding (tested: 100 nM)
[7]
  binding result: no binding (tested: 100 nM)
[8]
  blocking rate: 99.4%
[9]
  IC50: 0.76 nM
[10]
  blocking rate: 101%

B2: 1A1-Fc (antibody, human IgG1, V domains shown)
VH: QVQLVESGGGSVQAGGSLRLSCTASGYTFRGWNKHWYRQAPGKERELVSSIFRDGKTAYTDSVKGRFTISQDNADATVYLQMNSLKPEDTAMYYCKYDLPGSGLPAFWGQGTLVTVSS
notes: Camel VHH fused to human IgG1 Fc; also called anti-human BCMA VHH-Fc chimeric antibody 1A1-Fc
[3]
  EC50: 3.04 nM
[4]
  EC50: 2.77 nM
[5]
  blocking rate: 7.6%
[6]
  binding result: no binding (tested: 100 nM)
[7]
  binding result: no binding (tested: 100 nM)
[8]
  blocking rate: 101%
[9]
  IC50: 0.34 nM
[11]
  binding result: no binding
[12]
  blocking rate: 99.4%

B3: 1B10-Fc (antibody, human IgG1, V domains shown)
VH: EVQLVESGGGSVQAGGSLRLSCTASGYTFRGWNKHWYRQAPGKERELVSSIFRDGKTAYTDSVKGRFTISQDSADATVYLQMNSLKPEDTAMYYCKYDLPGSGLPEFWGQGTLVTVSS
notes: Camel VHH fused to human IgG1 Fc; also called anti-human BCMA VHH-Fc chimeric antibody 1B10-Fc
[3]
  EC50: 2.51 nM
[4]
  EC50: 1.72 nM
[5]
  blocking rate: 26.7%
[6]
  binding result: no binding (tested: 100 nM)
[7]
  binding result: no binding (tested: 100 nM)
[9]
  IC50: 0.26 nM
[11]
  binding result: no binding
[10]
  blocking rate: 100%
[12]
  blocking rate: 99.5%

B4: 1A10-Fc (antibody, human IgG1, V domains shown)
VH: QVQLVESGGGSVQAGGSLRLSCAASGYSSNVACMAWYRQAPGKEREWVATIVADFGTTNYAASVKGRFTISQDNAKNTVYLQMNSLKPEDSAMYYCAATQRGGIDWCDEINYWGQGTLVTVSS
notes: also called anti-human BCMA VHH-Fc chimeric antibody 1A10-Fc
[1]
  Kd: 0.94 nM
[2]
  EC50: 2.02 nM
[3]
  EC50: 4.28 nM
[4]
  EC50: 4.64 nM
[6]
  binding result: no binding (tested: 100 nM)
[7]
  binding result: no binding (tested: 100 nM)
[8]
  blocking rate: 46.4%
[9]
  IC50: 0.41 nM
[10]
  blocking rate: 36.9%
[12]
  blocking rate: 32.6%
